T1: calcium- and integrin-binding protein 1 (CIB1) (human (endogenous in platelets), UniProt Q99828 1-191)
T1 sequence (looked up): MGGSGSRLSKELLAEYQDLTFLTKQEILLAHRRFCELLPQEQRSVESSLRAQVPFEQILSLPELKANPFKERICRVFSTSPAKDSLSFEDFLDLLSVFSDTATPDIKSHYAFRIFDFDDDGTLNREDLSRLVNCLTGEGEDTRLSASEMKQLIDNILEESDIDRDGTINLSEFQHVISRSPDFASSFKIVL


Assays:
[1] = target: calcium- and integrin-binding protein 1 (CIB1) (human (endogenous in platelets)) (UniProt Q99828); assay: co-IP; anti-CIB1 immunoprecipitates (overnight 4°C, protein G-Sepharose) of pre-cleared 1% Nonidet P-40 lysates of washed human platelets exposed to BSA or immobilized Fg for ~45 min; blots for αIIb, FAK, c-Src; treatments: DMSO, BAPTA-AM (50 μM), cytochalasin D after adhesion
[2] = target: T1, calcium- and integrin-binding protein 1 …; assay: cell-based or functional assay

Row | fold reduction of co-precipitated αIIb with BAPTA-AM against vehicle [1] | c-Src activation (pY418 blot of lysates) in human platelets on immobilized Fg; inhibition by the incorporated αIIb peptide, which blocks CIB1 with αIIb (m1+m2) [2] | Molecule
1 | 6 fold | – | integrin αIIb subunit of αIIbβ3 (receptor)
2 | – | > 8 fold | KVGFFKRNRPPLEEDDEEGE (peptide, UniProt P08514 1020-1039, looked up) [αIIb cytoplasmic domain peptide]

— paper PMC5443481, “Binding of CIB1 to the αIIb tail of αIIbβ3 is required for FAK recruitment and activation in platelets” (PLoS ONE, 2017)
